Molecular target: Tat13-Strep-Tactin (HIV-1 | Streptomyces avidinii)
Test: SDS-PAGE of tetramers after heating

Tat13-Strep-Tactin (designed binder) showed a stoichiometry N of 4.

Source: publication PMC3823275
